Starred links: 1 amine or outer side, 2 acyl side, 3 side chain; linkers in the order of their positions; H or OH if unused. Positions of bridges follow the written chain, without caps; N, C: chain ends. Non-standard residues stand in square brackets, D forms with d. Primed or numbered codes have the meaning given here. B5(16) = 2-amino-2-(pent-4-en-1-yl)hept-6-enoic acid = 2,2-bis(4-pentenyl)glycine (stitching residue), C=CCCCC(CCCC=C)(N[*:1])C(=O)[*:2]; B5(4) = 2,2-bis(4-pentenyl)glycine = 2-amino-2-(pent-4-en-1-yl)hept-6-enoic acid (stitching residue), C=CCCCC(CCCC=C)(N[*:1])C(=O)[*:2]; B5(9) = 2-amino-2-(pent-4-en-1-yl)hept-6-enoic acid (2,2-bis(4-pentenyl)glycine), C=CCCCC(CCCC=C)(N[*:1])C(=O)[*:2]; B5(19) = 2-amino-2-(pent-4-en-1-yl)hept-6-enoic acid (bis(4-pentenyl)glycine), C=CCCCC(CCCC=C)(N[*:1])C(=O)[*:2]; B5 = 2-amino-2-(pent-4-en-1-yl)hept-6-enoic acid, C=CCCCC(CCCC=C)(N[*:1])C(=O)[*:2]; S(OMe) = O-methyl-L-serine, COC[C@H](N[*:1])C(=O)[*:2]; Phe(3,4,5-F3) = N[C@@H](Cc1cc(F)c(F)c(F)c1)C(=O)O; Bta = N[C@@H](Cc1csc2ccccc12)C(=O)O; αAllylPro = C=CC[C@@]1(C(=O)O)CCCN1; S8 = C=CCCCCCC[C@](C)(N)C(=O)O
T1: full-length beta-Catenin (Uniprot ID P35222) (Homo sapiens (Human), UniProt P35222 1-781)
T1 construct: also called bCat; B-Catenin
T1 sequence: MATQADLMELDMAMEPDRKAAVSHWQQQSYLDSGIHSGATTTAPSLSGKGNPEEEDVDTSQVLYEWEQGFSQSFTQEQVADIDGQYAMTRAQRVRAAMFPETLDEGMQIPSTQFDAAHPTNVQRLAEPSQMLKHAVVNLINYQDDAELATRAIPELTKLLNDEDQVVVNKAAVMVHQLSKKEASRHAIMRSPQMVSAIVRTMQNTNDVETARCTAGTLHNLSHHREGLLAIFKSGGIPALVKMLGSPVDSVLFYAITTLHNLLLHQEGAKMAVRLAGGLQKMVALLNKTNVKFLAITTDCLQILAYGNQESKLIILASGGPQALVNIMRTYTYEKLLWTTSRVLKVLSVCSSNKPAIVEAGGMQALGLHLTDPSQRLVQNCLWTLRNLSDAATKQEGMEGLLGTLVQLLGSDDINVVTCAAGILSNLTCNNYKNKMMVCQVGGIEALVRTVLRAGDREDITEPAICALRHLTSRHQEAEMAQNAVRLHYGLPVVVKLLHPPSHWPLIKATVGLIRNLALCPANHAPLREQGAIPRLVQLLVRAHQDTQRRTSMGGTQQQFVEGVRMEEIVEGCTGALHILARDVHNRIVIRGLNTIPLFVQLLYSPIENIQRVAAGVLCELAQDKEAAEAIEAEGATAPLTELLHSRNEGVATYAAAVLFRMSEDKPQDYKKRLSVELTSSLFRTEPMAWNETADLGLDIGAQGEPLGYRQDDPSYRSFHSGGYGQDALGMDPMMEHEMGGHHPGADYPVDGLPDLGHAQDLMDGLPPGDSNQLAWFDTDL

T2: full-length beta-Catenin (Uniprot ID P35222) (Homo sapiens (Human), UniProt P35222 1-781)
T2 construct: Used full-length in the FP and AlphaScreen assays; also called B-Catenin; bCat
T2 sequence: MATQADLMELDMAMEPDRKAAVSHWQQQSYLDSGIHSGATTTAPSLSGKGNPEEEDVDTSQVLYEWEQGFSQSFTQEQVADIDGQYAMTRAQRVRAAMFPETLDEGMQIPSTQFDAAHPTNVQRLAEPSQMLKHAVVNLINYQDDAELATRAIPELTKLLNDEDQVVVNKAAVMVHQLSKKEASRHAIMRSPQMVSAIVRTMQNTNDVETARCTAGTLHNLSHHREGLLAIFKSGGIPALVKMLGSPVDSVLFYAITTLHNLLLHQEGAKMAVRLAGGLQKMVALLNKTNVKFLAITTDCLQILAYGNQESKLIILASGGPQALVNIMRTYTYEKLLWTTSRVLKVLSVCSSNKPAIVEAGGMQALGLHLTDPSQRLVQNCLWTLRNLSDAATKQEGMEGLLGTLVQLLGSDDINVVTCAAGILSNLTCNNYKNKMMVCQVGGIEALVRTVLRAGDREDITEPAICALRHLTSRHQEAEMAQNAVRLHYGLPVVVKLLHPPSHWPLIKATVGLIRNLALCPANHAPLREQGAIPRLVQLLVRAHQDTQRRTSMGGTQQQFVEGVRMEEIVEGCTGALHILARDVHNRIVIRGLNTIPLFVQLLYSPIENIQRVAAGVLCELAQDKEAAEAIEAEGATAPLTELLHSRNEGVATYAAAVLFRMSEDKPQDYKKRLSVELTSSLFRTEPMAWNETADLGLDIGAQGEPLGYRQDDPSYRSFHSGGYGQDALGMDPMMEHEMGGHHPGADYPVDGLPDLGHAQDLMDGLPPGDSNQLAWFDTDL


Columns and labels:
[1] = target: T1, full-length beta-Catenin (Uniprot ID …); experiment: fluorescence polarization competition vs 5FAM-TCF4(10-53) on full-length beta-catenin
Protocol: (§1) The plate was incubated protected from light for 60 minutes at 20° C. prior to read. Reads were performed on a CLARIOstar plate reader (BMG Labtech) in duplicate, and data were fitted to a 1:1 binding model with hill slope using an in-house script. All provided concentrations are final concentrations.

[2] = target: T2, full-length beta-Catenin (Uniprot ID …); experiment: AlphaScreen (nickel chelate) competition; full-length beta-catenin + biotin-TCF4(10-53) probe as competitor; peptide titrated
Protocol: as §1, with “Equal volume of the titrated peptide was added to the” for “The”, “and” for “was”, “incubated for 15 minutes at 20° C. Then 4 uL of donor and 4 uL acceptor beads at 10 ug/mL were added to the plate, for a 16 uL reaction pool and” for “incubated”

[3] = target: T2, full-length beta-Catenin (Uniprot ID …); experiment: fluorescence polarization competition; full-length beta-catenin + 5FAM-TCF4(10-53) probe as competitor; peptide titrated
Protocol: as §1

Binder | IC50 [1] | EC50 [2] | EC50 [3]
XDAXADAAFVXFWQ (not fully specified; N-terminal Ac; PL3 at 1; B5 at 4; S8 at 11; C-terminal NH2; stapled PL3-B5 and B5-S8 (olefin metathesis), Stapled peptide composition; also called Ac-PL3-Asp-Ala-B5-Ala-Asp-Ala-Ala-Phe-Val-S8-Phe-Trp-Gln-NH2) [I-351] | 5000 nM | – | –
XDQXDDAAFVXFXQ (not fully specified; N-terminal Ac; PL3 at 1; B5 at 4; S8 at 11; BztA at 13; C-terminal NH2; stapled PL3-B5 and B5-S8 (olefin metathesis), Stapled peptide composition; also called Ac-PL3-Asp-Gln-B5-Asp-Asp-Ala-Ala-Phe-Val-S8-Phe-BztA-Gln-NH2) [I-347] | 122 nM | – | –
XDAXDEAAFQXFWH (not fully specified; As printed: Ac-PL3-Asp-Ala-B5-Asp-Glu-Ala-Ala-Phe-Gln-S8-Phe-Trp-His-NH2. N-terminal Ac; C-terminal amide; PL3 (1), B5 (4), S8 (11) stapled by olefin metathesis (PL3-B5 and B5-S8), Stapled peptide composition) [I-179] | – | 152 nM | 1630 nM
XDIXDEAAFQXFWQ (not fully specified; As printed: Ac-PL3-Asp-Ile-B5-Asp-Glu-Ala-Ala-Phe-Gln-S8-Phe-Trp-Gln-NH2. N-terminal Ac; C-terminal amide; PL3 (1), B5 (4), S8 (11) stapled by olefin metathesis (PL3-B5 and B5-S8), Stapled peptide composition; this is the earlier-eluting isomer composition) [I-180] | – | 88 nM | 561 nM
Ac-[αAllylPro]DI[B5(19)]DEAAFQ[S8]FWA-NH2 (staple 1-4, 4-11, Stapled peptide composition) [I-194] | – | 105 nM | 1010 nM
Ac-[αAllylPro]DA[B5(19)]D[dE]AAFV[S8]FWQ-NH2 (staple 1-4, 4-11, Stapled peptide composition) [I-182] | – | 750 nM | 2800 nM
Ac-[αAllylPro]NA[B5(4)]DEAAFV[S8]FWQ-NH2 (staple 1-4, 4-11, Stapled peptide composition; this is the later-eluting isomer composition) [I-200] | – | – | 5000 nM
Ac-[αAllylPro]DA[B5]NEAAFV[S8]FWQ-NH2 (staple 1-4, 4-11, Stapled peptide composition) [I-198] | – | 538 nM | 5000 nM
XDAXDEAAFAXFWA (not fully specified; As printed: Ac-PL3-Asp-Ala-B5-Asp-Glu-Ala-Ala-Phe-Ala-S8-Phe-Trp-Ala-NH2. N-terminal Ac; C-terminal amide; PL3 (1), B5 (4), S8 (11) stapled by olefin metathesis (PL3-B5 and B5-S8), Stapled peptide composition; this is the later-eluting isomer composition) [I-187] | – | 204 nM | 3320 nM

Second part, the binder after the results:

IC50 [1] | EC50 [2] | EC50 [3] | Binder
134 nM | – | – | Ac-[αAllylPro]D[S(OMe)][B5(9)]DDAAFV[S8]F[Bta]Q-NH2 (staple 1-4, 4-11, Stapled peptide composition; also called Ac-PL3-Asp-S(OMe)-B5-Asp-Asp-Ala-Ala-Phe-Val-S8-Phe-BztA-Gln-NH2) [I-345]
180 nM | – | – | XDQXDDAAFVXFXQ (not fully specified; N-terminal Ac; PL3 at 1; B5 at 4; S8 at 11; BztA at 13; C-terminal NH2; stapled PL3-B5 and B5-S8 (olefin metathesis), Stapled peptide composition; also called Ac-PL3-Asp-Gln-B5-Asp-Asp-Ala-Ala-Phe-Val-S8-Phe-BztA-Gln-NH2) [I-346]
5000 nM | – | – | Ac-[αAllylPro]DA[B5(16)]DAAAFV[S8]FWQ-NH2 (staple 1-4, 4-11, Stapled peptide composition; also called Ac-PL3-Asp-Ala-B5-Asp-Ala-Ala-Ala-Phe-Val-S8-Phe-Trp-Gln-NH2) [I-352]
5000 nM | – | – | XDAXDDAAFVXFXQ (not fully specified; N-terminal Ac; PL3 at 1; B5 at 4; S8 at 11; 4CBMF at 12; BztA at 13; C-terminal NH2; stapled PL3-B5 and B5-S8 (olefin metathesis), Stapled peptide composition; also called Ac-PL3-Asp-Ala-B5-Asp-Asp-Ala-Ala-Phe-Val-S8-4CBMF-BztA-Gln-NH2) [I-338]
5000 nM | – | – | XDAXADAAFVXFWQ (not fully specified; N-terminal Ac; PL3 at 1; B5 at 4; S8 at 11; C-terminal NH2; stapled PL3-B5 and B5-S8 (olefin metathesis), Stapled peptide composition; also called Ac-PL3-Asp-Ala-B5-Ala-Asp-Ala-Ala-Phe-Val-S8-Phe-Trp-Gln-NH2) [I-350]
– | – | 5000 nM | Ac-[αAllylPro]DA[B5(4)]DEAA[Phe(3,4,5-F3)]V[S8]FWQ-NH2 (staple 1-4, 4-11, Stapled peptide composition) [I-212]
– | – | 5000 nM | Ac-[αAllylPro]NA[B5]DEAAFV[S8]FWQ-NH2 (staple 1-4, 4-11, Stapled peptide composition; this is the earlier-eluting isomer composition) [I-199]
5000 nM | – | – | XDAXDDAAFVXFXQ (not fully specified; N-terminal Ac; PL3 at 1; B5 at 4; S8 at 11; 4CBMF at 12; BztA at 13; C-terminal NH2; stapled PL3-B5 and B5-S8 (olefin metathesis), Stapled peptide composition; also called Ac-PL3-Asp-Ala-B5-Asp-Asp-Ala-Ala-Phe-Val-S8-4CBMF-BztA-Gln-NH2) [I-337]
5000 nM | – | – | XAAXDDAAFVXFWQ (not fully specified; N-terminal Ac; PL3 at 1; B5 at 4; S8 at 11; C-terminal NH2; stapled PL3-B5 and B5-S8 (olefin metathesis), Stapled peptide composition; also called Ac-PL3-Ala-Ala-B5-Asp-Asp-Ala-Ala-Phe-Val-S8-Phe-Trp-Gln-NH2) [I-349]
5000 nM | – | – | XAAXDDAAFVXFWQ (not fully specified; N-terminal Ac; PL3 at 1; B5 at 4; S8 at 11; C-terminal NH2; stapled PL3-B5 and B5-S8 (olefin metathesis), Stapled peptide composition; also called Ac-PL3-Ala-Ala-B5-Asp-Asp-Ala-Ala-Phe-Val-S8-Phe-Trp-Gln-NH2) [I-348]
